Residue numbers refer to the chain shown, from its start. Names may count otherwise.
How the values were obtained:
human CD19 [1] = target: T1, human CD19 (human, UniProt P15391 20-556); experiment: flow cytometry, Raji cells, MPF vs chimeric FMC63
T1 construct: CD19 as expressed on Raji, NALM-6 and SU-DHL-6 cells; also called CD19 antigen; B-cell surface antigen B4
T1 sequence: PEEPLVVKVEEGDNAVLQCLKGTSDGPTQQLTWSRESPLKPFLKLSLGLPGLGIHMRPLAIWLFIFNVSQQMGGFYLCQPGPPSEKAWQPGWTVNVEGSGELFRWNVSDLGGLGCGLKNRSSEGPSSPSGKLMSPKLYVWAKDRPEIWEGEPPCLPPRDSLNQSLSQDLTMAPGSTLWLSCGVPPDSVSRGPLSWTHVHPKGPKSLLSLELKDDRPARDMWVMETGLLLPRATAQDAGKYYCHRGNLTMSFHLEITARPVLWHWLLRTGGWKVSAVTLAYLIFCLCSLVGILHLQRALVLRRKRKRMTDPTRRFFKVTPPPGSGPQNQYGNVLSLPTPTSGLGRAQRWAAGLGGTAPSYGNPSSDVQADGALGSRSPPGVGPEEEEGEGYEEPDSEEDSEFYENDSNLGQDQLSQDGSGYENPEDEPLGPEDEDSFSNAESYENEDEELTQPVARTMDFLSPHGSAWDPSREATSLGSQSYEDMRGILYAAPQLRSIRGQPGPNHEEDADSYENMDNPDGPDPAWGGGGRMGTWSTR
Experimental: (§1) Binding of the CD19 humanized monoclonal antibodies by flow cytometry to Raji tumor cells (human Burkitt lymphoma, DSMZ ACC319), NALM-6 (human B cell precursor leukemia, DSMZ ACC128) and SU-DHL-6 (human B cell lymphoma, DSMZ ACC572) (all cell lines from DSMZ Braunschweig, Deutschland) was assessed. Cells were incubated with serial dilutions of each humanized monoclonal antibody. An irrelevant human IgG1 was used as a negative control. The cells were washed and detected by a phycoerythrin-labeled (PE) anti-human secondary antibody (eBioscience, CA, USA) and analyzed by flow cytometry. […] From MFI versus antibody concentration curves, Mid-Point Fluorescence (MPF) value for each anti-CD19 humanized antibody was calculated using the software GraphPad Prism 5 (CA, USA).

human CD19 [2] = target: T1, human CD19; experiment: flow cytometry, Raji cells, MPF vs chimeric FMC63; remark: listed apart in the source
Experimental: as §1

human CD19 [3] = target: T1, human CD19; experiment: flow cytometry, Raji cells, MPF vs chimeric FMC63; remark: listed apart in the source
Experimental: as §1

human CD19 [4] = target: T1, human CD19; experiment: flow cytometry, NALM-6 cells, MPF vs chimeric FMC63
Experimental: as §1

human CD19 [5] = target: T1, human CD19; experiment: Scatchard analysis, Eu3+-labelled antibody on Raji cells
Experimental: (§2) Raji cells as described in Example 2 were grown in RPMI-1640 medium (Chemie Brunschwig AG, PAA, Basel, Switzerland) supplemented with 10% fetal bovine serum (FBS, Chemie Brunschwig AG, PAA, Basel, Switzerland), 2 mM ultraglutamine 1 (Lonza, Verviers, Belgium) and 1% penicillin/streptomycin (Chemie Brunschwig AG, PAA, Basel, Switzerland). The cells were washed with the same culture medium and adjusted to a final concentration of 1×10⁶ cells/ml. A 100 μl volume of Raji cells was seeded in U-bottomed 96-well plate. […] Cells were incubated with Eu³⁺-antibody for 15 minutes on ice to reach equilibrium. The amount of free Eu³⁺-labelled antibodies were measured by transferring aliquots of cell-free supernatant (volumes were empirically adjusted depending on antibody concentration; cells were spun at 1300 RPM for 2 min) into a fresh plate containing 100 μl of Delfia solution (PerkinElmer, MA, USA; an enhancer of Eu³⁺ fluorescence). To ensure complete removal of the supernatant, cells were spin down once more at 1300 RPM for 2 minutes. After the second centrifugation, the supernatant was discarded, and cells were washed twice with 200 μl of cold binding buffer (PBS-2.5% FBS-0.05% NaN₃). Cell pellets were resuspended into 100 μl of Delfia solution.

human CD19 [6] = target: T1, human CD19; experiment: competition with 0.2 nM Eu3+-labelled chimeric FMC63 on Raji cells
Experimental: To that aim, 100 μl volumes of Raji cells in RPMI-1640 medium (Chemie Brunschwig AG, PAA, Basel, Switzerland) supplemented with 10% fetal bovine serum (FBS, Chemie Brunschwig AG, PAA, Basel, Switzerland), 2 mM ultraglutamine 1 (Lonza, Verviers, Belgium) and 1% penicillin/streptomycin (Chemie Brunschwig AG, PAA, Basel, Switzerland), prepared at concentration of 1×10⁶ cells/ml were seeded in a U-bottomed 96-well plate. […] The antibody dilutions were cooled down to 4° C. before 100 μl was taken and added on the Raji cells. […] Cells were incubated with the antibodies for 15 minutes on ice. After reaching equilibrium, the cells were centrifuged at 1300 RPM for 2 minutes and supernatant was discarded. Cell pellets were washed twice with 200 μl of cold binding buffer PBS-2.5% FBS-0.05% NaN₃, and resuspended into 100 μl of Delfia solution. Cell bound Eu³+-FMC63 was measured with time resolved fluorescence as described above. The amount of Eu³+-FMC63 (fmole) per well was determined and plotted versus the total amount of unlabelled antibody.

human CD19 [7] = target: T1, human CD19; experiment: flow cytometry on SU-DHL-6 cells, PE-labelled anti-human secondary antibody, MFI against antibody concentration
Experimental: as §1

human CD19 [8] = target: T1, human CD19; experiment: Scatchard analysis (Bound/Free against Bound) of europium-labelled antibody on Raji cells, time resolved fluorescence
Experimental: as §2

human CD19 [9] = target: T1, human CD19; experiment: cell-based or functional assay
human CD19 [10] = target: T1, human CD19; experiment: binding to Raji cells
human CD19 [11] = target: T1, human CD19; experiment: flow cytometry on Raji cells
Experimental: as §1

B1: VH16-R94K/VL43 (antibody, human IgG1)
heavy: not shown
VL: DIVMTQTPSSLSASVGDRVTITCRASQDISKYLNWYQQKPGKAPKLLIYHTSRLHSGVPSRFSGSGSGTDFTLTISSLQPEDFATYYCQQGNTLPYTFGPGTKVDIKRTVAA
notes: Full-length human IgG1/kappa
Human CD19 [1]
  relative MPF (% of chimeric FMC63): 27.1%
Human CD19 [2]
  relative MPF (% of chimeric FMC63): 26.8%
Human CD19 [3]
  relative MPF (% of chimeric FMC63): 26.8%
Human CD19 [4]
  relative MPF (% of chimeric FMC63): 14.4%
Human CD19 [5]
  Kd: 47 nM
Human CD19 [6]
  Ki: 7.6 nM
Human CD19 [7]
  EC50 (read off the curve): ~0.2 µg/mL

B2: VH16 R94K VL43 T93V (antibody, human IgG1, V domains shown)
VH: QVQLVQSGGGVVQPGRSLRLSCAASGVSLPDYGVSWVRQAPGKGLEWVAVIWGSETTYYNSALKSRFTISRDNSKNTLYLQMNSLRAEDTAVYYCAKHYYYGGSYAMDYWGQGTLVTVSS
VL: DIVMTQTPSSLSASVGDRVTITCRASQDISKYLNWYQQKPGKAPKLLIYHTSRLHSGVPSRFSGSGSGTDFTLTISSLQPEDFATYYCQQGNVLPYTFGPGTKVDIKR
notes: Full-length human IgG1/kappa; substitutions in Kabat numbering; also called VK16 R94K VL43 T93V
Human CD19 [3]
  relative MPF (% of chimeric FMC63): 17.4%

B3: VH16-R94K/VL43-V3Q/T7S (antibody, human IgG1)
heavy: not shown
VL: B1 VL with V3Q, T7S
notes: Full-length human IgG1/kappa; substitutions in Kabat numbering
Human CD19 [2]
  relative MPF (% of chimeric FMC63): 27.8%

B4: VH16 R94K VL43 N92A (antibody, human IgG1)
heavy: not shown
VL: B1 VL with N92A
notes: as for B3
Human CD19 [3]
  relative MPF (% of chimeric FMC63): 25.9%

B5: VH16 R94K VL43 P44I (antibody, human IgG1, V domains shown)
VH: B2 VH
VL: B2 VL with P44I, V93T
notes: as for B3
Human CD19 [7]
  EC50 (read off the curve): ~0.09 µg/mL
Human CD19 [8]
  Kd: 19 nM

B6: VH16 R94K VL43 T93A (antibody, human IgG1, V domains shown)
VH: B2 VH
VL: B2 VL with V93A
notes: as for B3
Human CD19 [3]
  relative MPF (% of chimeric FMC63): 34.1%

B7: VH16-R94K/VL43-V3Q-T7S-P44I-N92A (antibody, human IgG1, kappa, V domains shown)
VH: B2 VH
VL: B2 VL with V3Q, T7S, P44I, N92A, V93T
notes: human IgG1/kappa
Human CD19 [9]
  ADCC: specific lysis of Raji cells by PBMC (LDH release), against IgG1 control: ≥ 3 fold
Human CD19 [1]
  relative MPF (% of chimeric FMC63): 83.3%
Human CD19 [6]
  Ki: 3.9 nM
Human CD19 [7]
  EC50 (read off the curve): ~0.09 µg/mL

B8: VH16/VL43 (antibody, human IgG1, V domains shown)
VH: B2 VH with K97R
VL: B2 VL with V93T
Human CD19 [1]
  relative MPF (% of chimeric FMC63): 7.42%
Human CD19 [2]
  relative MPF (% of chimeric FMC63): 7.14%
Human CD19 [3]
  relative MPF (% of chimeric FMC63): 7.14%
Human CD19 [4]
  relative MPF (% of chimeric FMC63): 3.29%
Human CD19 [6]
  Ki: 72.8 nM

B9: VH16 R94K VL43 F71H (antibody, human IgG1, V domains shown)
VH: B2 VH
VL: DIVMTQTPSSLSASVGDRVTITCRASQDISKYLNWYQQKPGKAPKLLIYHTSRLHSGVPSRFSGSGSGTDHTLTISSLQPEDFATYYCQQGNTLPYTFGPGTKVDIK
Human CD19 [10]
  binding result: binds

B10: VH16 Y32F/R94K/Y97F/VL43 V3Q/T7S/Y32F/N92A (antibody, human IgG1, name in Kabat numbering, V domains shown)
VH: B2 VH with Y32F, Y100F
VL: B2 VL with V3Q, T7S, Y32F, N92A, V93T
notes: substitutions in Kabat numbering
Human CD19 [11]
  binding result: no binding

B11: VH16-Y32F-R94K-Y97F/VL43-V3Q-T7S-N92A (antibody, human IgG1, name in Kabat numbering, V domains shown)
VH: B2 VH with Y32F, Y100F
VL: B2 VL with V3Q, T7S, N92A, V93T
notes: as for B10
Human CD19 [1]
  relative MPF (% of chimeric FMC63): 16.9%
Human CD19 [6]
  Ki: 49.9 nM

B12: VH16 R94K/Y97F/VL43 V3Q/T7S/Y32F/N92A (antibody, human IgG1, name in Kabat numbering, V domains shown)
VH: B2 VH with Y100F
VL: B2 VL with V3Q, T7S, Y32F, N92A, V93T
notes: as for B10
Human CD19 [11]
  binding result: no binding

B13: VH16 R94K VL43 F71S (antibody, human IgG1, V domains shown)
VH: B2 VH
VL: B9 VL with H71S
Human CD19 [10]
  binding result: binds

B14: VH16 R94K VL43 F71T (antibody, human IgG1, V domains shown)
VH: B2 VH
VL: B9 VL with H71T
Human CD19 [10]
  binding result: binds

Source: patent US20100215651A1 (GLENMARK PHARMACEUTICALS S A, published 2010)
